Values of other authors in paper PMC6934062.

Molecular target: TDP-43 NTD (Homo sapiens) (UniProt Q13148)

Kd: 70 µM
Substance: TDP-43 NTD (from UniProt Q13148)
